According to patent US4793986A, “Macromolecular platinum antitumor compounds” (Johnson Matthey, Inc., priority 1987, dated 1988):

How the values were obtained:
L1210 = assay: Lifespan summary, L1210; assay type: in vivo, mice; details: i.p.; for AWG D.5: day 5
[1] = cited from earlier work
L1210 Leukemia = assay: Effect on L1210 Leukemia; assay type: in vivo, mice; details: i.p.; for AWG D.5: day 5
Pt release = assay type: physicochemical; design: unit not given here
B16-F10 = assay: In-vitro cytotoxicity testing, B16-F10; assay type: cell-based; details: B16-F10 (murine melanoma)
Excerpt: (§1) IN-VITRO CY[…]^1
(§2) IC50 (ug/ml)/Active Dilution
B16F10 -- Murine melanoma

A549 = assay: In-vitro cytotoxicity testing, A549; assay type: cell-based; details: A549 (human lung)
Excerpt: IN-VITRO CYTOTOXICITY TESTING^1
as §2

SW1271 = assay: In-vitro cytotoxicity testing, SW1271; assay type: cell-based; details: SW1271 (human lung)
Excerpt: as §1, §2

HCT-116 = assay: In-vitro cytotoxicity testing, HCT-116; assay type: cell-based; details: HCT-116 (human colon)
Excerpt: as §1, §2

[2] = 4 mg/kg/dose, Q01DX1;1, vehicle BS
[3] = 6 mg/kg/dose, Q01DX1;1, vehicle BS
[4] = 8 mg/kg/dose, Q01DX1;1, vehicle BS
[5] = 10 mg/kg/dose, Q01DX1;1, vehicle BS
[6] = pH 5.80, 1 h, 0.1M phosphate buffer
[7] = pH 5.80, 24 h, 0.1M phosphate buffer
[8] = pH 5.80, 48 h, 0.1M phosphate buffer
[9] = pH 7.00, 1 h, 0.1M phosphate buffer
[10] = pH 7.00, 24 h, 0.1M phosphate buffer
[11] = pH 7.00, 48 h, 0.1M phosphate buffer
[12] = pH 8.00, 1 h, 0.1M phosphate buffer
[13] = pH 8.00, 24 h, 0.1M phosphate buffer
[14] = pH 8.00, 48 h, 0.1M phosphate buffer
[15] = 160 mg/kg/dose, Q01DX1;1, H2O + tween 80
[16] = 240 mg/kg/dose, Q01DX1;1, H2O + tween 80
[17] = 320 mg/kg/dose, Q01DX1;1, H2O + tween 80
[18] = 400 mg/kg/dose, Q01DX1;1, H2O + tween 80
[19] = 80 mg/kg/dose, Q01DX1;1, H2O + tween 80
[20] = 120 mg/kg/dose, Q01DX1;1, H2O + tween 80

With `N.N.[Cl][Pt][Cl]` [Cisplatin, cis-diamino dichloroplatinum(II)] the “% T/C” value (L1210; [2]) was 129%, the “Med. S.T.” value (L1210; [2]) was 9.0 and the “AWG D.5” value (L1210; [2]) was -0.7 Gm. For the same molecule, the “% T/C” value (L1210; [3]) was 157%, the “Med. S.T.” value (L1210; [3]) was 11.0 and the “AWG D.5” value (L1210; [3]) was -2.1 Gm. For the same molecule, the “% T/C” value (L1210; [4]) was 171%, the “Med. S.T.” value (L1210; [4]) was 12.0 and the “AWG D.5” value (L1210; [4]) was -2.8 Gm. For the same molecule, the “% T/C” value (L1210; [5]) was 171%, the “Med. S.T.” value (L1210; [5]) was 12.0 and the “AWG D.5” value (L1210; [5]) was -3.3 Gm. The nausea and vomiting ([1]; cisplatin as a drug) was “nausea and vomiting which cause extreme discomfort for the patient”, the “% T/C” value (L1210 Leukemia; [2]) was 129% and the “Med. S.T.” value (L1210 Leukemia; [2]) was 9.0. For the same molecule, the “AWG D.5” value (L1210 Leukemia; [2]) was 0.2 Gm, the “% T/C” value (L1210 Leukemia; [3]) was 157% and the “Med. S.T.” value (L1210 Leukemia; [3]) was 11.0. The “AWG D.5” value (L1210 Leukemia; [3]) was -0.9 Gm, the “% T/C” value (L1210 Leukemia; [4]) was 136% and the “Med. S.T.” value (L1210 Leukemia; [4]) was 9.5. The “AWG D.5” value (L1210 Leukemia; [4]) was -1.4 Gm, the “% T/C” value (L1210 Leukemia; [5]) was 171% and the “Med. S.T.” value (L1210 Leukemia; [5]) was 12.0. For the same molecule, the “AWG D.5” value (L1210 Leukemia; [5]) was -2.4 Gm.
In the case of `N.N.O=C([O-])C1(C(=O)[O-])CCC1.[Pt+2]` [carboplatin], the nephrotoxicity ([1]; carboplatin, relative to cisplatin) is listed as “decreased nephrotoxicity”.
Pt-Isoserinato Dextran [Example 5] gave a Pt release (Pt release; [6]) of 9.5, a Pt release (Pt release; [7]) of 72.5 and a Pt release (Pt release; [8]) of 88.5. For the same molecule, the Pt release (Pt release; pH 5.80, 120 h, 0.1M phosphate buffer) was 98.7, the Pt release (Pt release; [9]) was 8.8 and the Pt release (Pt release; [10]) was 61.1. It also gave a Pt release (Pt release; [11]) of 76.3, a Pt release (Pt release; pH 7.00, 120 h, 0.1M phosphate buffer) of 89.3 and a Pt release (Pt release; [12]) of 8.8. The Pt release (Pt release; [13]) was 55.7, the Pt release (Pt release; [14]) was 66.9 and the Pt release (Pt release; pH 8.00, 120 h, 0.1M phosphate buffer) was 76.2.
With “Pt-Malonato Dextran (Method A) [Example 1]” the IC50 (B16-F10) was 426 µg/mL, the IC50 (A549) was > 500 µg/mL and the IC50 (SW1271) was 408 µg/mL. The IC50 (HCT-116) was > 500 µg/mL, the Pt release (Pt release; pH 5.60, 2 h) was 0.6 and the Pt release (Pt release; pH 5.60, 24 h) was 4.3. For the same molecule, the Pt release (Pt release; pH 5.60, 48 h) was 6.8, the Pt release (Pt release; pH 5.60, 72 h) was 8.2 and the Pt release (Pt release; pH 6.80, 2 h) was 0.5. For the same molecule, the Pt release (Pt release; pH 6.80, 24 h) was 6.6, the Pt release (Pt release; pH 6.80, 48 h) was 10.2 and the Pt release (Pt release; pH 6.80, 72 h) was 13.3. It also gave a Pt release (Pt release; pH 8.30, 2 h) of 1.3, a Pt release (Pt release; pH 8.30, 24 h) of 7.2 and a Pt release (Pt release; pH 8.30, 48 h) of 10.3. It also gave a Pt release (Pt release; pH 8.30, 72 h) of 13.8.
In the case of “Pt-Malonato Dextran (Method B) [Example 2]”, the IC50 (B16-F10) is reported as 332 µg/mL, the “% T/C” value (L1210; [15]) is reported as 107% and the “Med. S.T.” value (L1210; [15]) is reported as 7.5. For the same molecule, the “% T/C” value (L1210; [16]) was 121%, the “Med. S.T.” value (L1210; [16]) was 8.5 and the “% T/C” value (L1210; [17]) was 114%. For the same molecule, the “Med. S.T.” value (L1210; [17]) was 8.0, the “% T/C” value (L1210; [18]) was 143% and the “Med. S.T.” value (L1210; [18]) was 10.0. For the same molecule, the IC50 (SW1271) was > 500 µg/mL, the IC50 (HCT-116) was 430 µg/mL and the “% T/C” value (L1210 Leukemia; [19]) was 100%. The “Med. S.T.” value (L1210 Leukemia; [19]) was 7.0, the “% T/C” value (L1210 Leukemia; [20]) was 100% and the “Med. S.T.” value (L1210 Leukemia; [20]) was 7.0. The “% T/C” value (L1210 Leukemia; [15]) was 107% and the “Med. S.T.” value (L1210 Leukemia; [15]) was 7.5.
With Pt-Malonato Inulin [Example 7] the Pt release (Pt release; pH 5.42, 1 h) was 4.7, the Pt release (Pt release; pH 5.42, 24 h) was 18.1 and the Pt release (Pt release; pH 5.42, 48 h) was 20.5. The Pt release (Pt release; pH 5.42, 72 h) was 26.2, the Pt release (Pt release; pH 5.42, 144 h) was 27.5 and the Pt release (Pt release; pH 6.76, 1 h) was 3.1. The Pt release (Pt release; pH 6.76, 24 h) was 15.2, the Pt release (Pt release; pH 6.76, 48 h) was 18.3 and the Pt release (Pt release; pH 6.76, 72 h) was 20.0. The Pt release (Pt release; pH 6.76, 144 h) was 22.7, the Pt release (Pt release; pH 7.86, 1 h) was 4.9 and the Pt release (Pt release; pH 7.86, 24 h) was 17.8. The Pt release (Pt release; pH 7.86, 48 h) was 21.0, the Pt release (Pt release; pH 7.86, 72 h) was 21.9 and the Pt release (Pt release; pH 7.86, 144 h) was 28.8.
For Pt-Malonato Xylan [Example 9], the Pt release (Pt release; [6]) was 3.1, the Pt release (Pt release; [7]) was 22.6 and the Pt release (Pt release; [8]) was 29.8. For the same molecule, the Pt release (Pt release; pH 5.80, 72 h, 0.1M phosphate buffer) was 32.8, the Pt release (Pt release; pH 5.80, 144 h, 0.1M phosphate buffer) was 41.9 and the Pt release (Pt release; [9]) was 2.1. It also gave a Pt release (Pt release; [10]) of 17.9, a Pt release (Pt release; [11]) of 23.7 and a Pt release (Pt release; pH 7.00, 72 h, 0.1M phosphate buffer) of 27.5. The Pt release (Pt release; pH 7.00, 144 h, 0.1M phosphate buffer) was 40.9, the Pt release (Pt release; [12]) was 1.7 and the Pt release (Pt release; [13]) was 18.9. For the same molecule, the Pt release (Pt release; [14]) was 25.4, the Pt release (Pt release; pH 8.00, 72 h, 0.1M phosphate buffer) was 28.2 and the Pt release (Pt release; pH 8.00, 144 h, 0.1M phosphate buffer) was 35.8.
In the case of “Pt-malonato dextran [Pt-malonato dextran of Example 3]”, the Pt release (Pt release; pH 5.50, 1 h) is reported as 0.6, the Pt release (Pt release; pH 5.50, 16 h) is reported as 5.2 and the Pt release (Pt release; pH 5.50, 40 h) is reported as 6.4. For the same molecule, the Pt release (Pt release; pH 5.50, 64 h) was 7.6, the Pt release (Pt release; pH 7.10, 1 h) was 0.6 and the Pt release (Pt release; pH 7.10, 16 h) was 4.2. It also gave a Pt release (Pt release; pH 7.10, 40 h) of 4.9, a Pt release (Pt release; pH 7.10, 64 h) of 6.1 and a Pt release (Pt release; pH 8.20, 1 h) of 0.7. For the same molecule, the Pt release (Pt release; pH 8.20, 16 h) was 4.2, the Pt release (Pt release; pH 8.20, 40 h) was 5.1 and the Pt release (Pt release; pH 8.20, 64 h) was 6.4.
